The target of this experiment is T1, human endogenous C5a (eC5a) generated in human zymosan-activated plasma (human, UniProt P01031 678-751).
T1 sequence: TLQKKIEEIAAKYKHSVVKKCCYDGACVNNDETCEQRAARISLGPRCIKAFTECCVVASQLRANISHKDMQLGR
Put plainly: cell-based or functional assay.

B1: IFX-1 (antibody, IgG4, V domains shown)
VH: QVQLQQSGPQLVRPGTSVKISCKASGYSFTTFWMDWVKQRPGQGLEWIGRIDPSDSESRLDQRFKDRATLTVDKSSSTVYMQLSSPTSEDSAVYYCARGNDGYYGFAYWGQGTLVTVSS
VL: DIVLTQSPASLAVSLGQRATISCKASQSVDYDGDSYMKWYQQKPGQPPKLLIYAASNLQSGIPARFSGSGSGTDFTLNIHPVEEEDAATYYCQQSNEDPYTFGGGTKLEIK
As for B1, the “blocking of eC5a-induced CD11b up-regulation on human granulocytes (ZAP-CD11b assay), Ab:Ag ratios 1:1 and 2:1” value was not above 98%; the “decrease of CD11b expression on human granulocytes (ZAP-CD11b assay, flow cytometry MFI), Ab:Ag molar ratio 0.5:1” value was more than 80%.

The values are drawn from US20190202900A1 (INFLARX, published 2019).
